Substrate in assay [1]: 人OPN (Osteopontin, R&D Systems) (human) (UniProt P10451)
The assay is described as follows: sandwich ELISA: mAb coated at 1.0 μg/ml, OPN standard, rabbit anti-human OPN polyclonal serum as detector.

Substrate in assay [2]: 人OPN (Osteopontin, R&D Systems) (human) (UniProt P10451)
The assay is described as follows: sandwich ELISA: mAbs coated at 1.0 μg/ml; OPN at 6.25-100 pg/mL for this mAb and 6.25-100 ng/mL for the commercial mAb.

B1: 重组抗OPN单克隆抗体 7G2 (antibody, V domains shown)
VL: DILMTQTPLSLPVSLGDQASISCRSSQSLVHSNGNTYLHWYLQKPGQSPKLLISKVSNRFSGVPDRFSGSGSGTDFTLKISRVEAEDLGVYFCSQSTHVPWTFGGGTKLEIKR
VH: MAQVQLEQSGPELVKPGASVKMSCKSSGYTFTTYVMHVKQKPGQGLEWIGYINPYNDGSKYNEKFKGKATLTSDKSSNTAYMELSSLTSEDSAVYYSDSHYGGSPAYWGQGTLVTVSA
Take B1: the 灵敏度 (detection sensitivity for OPN) in assay [1] came out at 6.52 pg/mL. Besides, the fold higher sensitivity for human OPN than the commercial mAb MAB14331 in assay [2] is 1000 fold.
